Test in all cases: cell-based or functional assay
The target in experiment [1] is HIV-1 Env of isolate MGRM-D-005 (clade D pseudovirus) (HIV-1).
The target in experiment [2] is HIV-1 Env of pseudovirus MGRM-Chronic-B-023 (HIV-1).
In experiment [3] the target is HIV-1 Env of pseudovirus MGRM-Chronic-B-024 (HIV-1).
Experiment [4] deals with HIV-1 Env of pseudovirus MGRM-G-001 (clade G) (HIV-1).
The target of experiment [5] is HIV-1 Env of pseudovirus MGRM-G-009 (clade G) (HIV-1).
Experiment [6] addresses HIV-1 Env of pseudovirus MGRM-G-016 (HIV-1, clade G isolate MGRM-G-016).
In experiment [7] the target is HIV-1 IAVI-C3 envelope glycoprotein (Env) on pseudovirus (HIV-1).
Experiment [8] addresses HIV-1 MGRM-A-010 Env (pseudovirus, clade A) (HIV-1).
In experiment [9] the target is HIV-1 MGRM-C-026 Env (pseudovirus, clade C) (HIV-1).
Experiment [10] concerns the target HIV-1 Env of isolate 92UG001 (pseudovirus) (HIV-1).
For experiment [11], the target named is HIV-1 Env of isolate 92UG024 (pseudovirus) (HIV-1).
Experiment [12] addresses HIV-1 Env of isolate 92UG046 (pseudovirus) (HIV-1).
The target of experiment [13] is HIV-1 Env of isolate APV_6 (subtype B pseudovirus) (HIV-1).
Experiment [14] concerns the target HIV-1 Env of isolate MGRM-AE-006 (HIV-1).
The target in experiment [15] is HIV-1 Env of isolate MGRM-Chronic-B-018 (subtype B pseudovirus) (HIV-1).
Experiment [16] has as its target HIV-1 Env of isolate MGRM-D-026 (pseudovirus) (HIV-1).
For experiment [17], the target named is HIV-1 Env of isolate MGRM-F1-010 (pseudovirus) (HIV-1).
Experiment [18] concerns the target HIV-1 Env of isolate MGRM-F1-015 (HIV-1).
For experiment [19], the target named is HIV-1 Env of isolate MGRM-F1-016 (HIV-1).
Experiment [20] concerns the target HIV-1 Env of isolate MGRM-F1-018 (HIV-1).
Experiment [21] deals with HIV-1 Env of isolate VLGCB3 (subtype B pseudovirus) (HIV-1).
Experiment [22] concerns the target HIV-1 92BR020 envelope glycoprotein (Env) on pseudovirus (HIV-1).
Experiment [23] concerns the target HIV-1 92UG024 envelope glycoprotein (Env) on pseudovirus (HIV-1).
Experiment [24] addresses HIV-1 93UG077 Env (pseudovirus) (HIV-1).
The target of experiment [25] is HIV-1 Env of isolate MGRM-D-001 (clade D), on pseudovirus (HIV-1).
The target of experiment [26] is HIV-1 Env of isolate CMU02 (subtype AE) (HIV-1).
In experiment [27] the target is HIV-1 Env of isolate MGRM-AE-002 (subtype AE) (HIV-1).
For experiment [28], the target named is HIV-1 Env of isolate MG RM-D-014 (HIV-1).
In experiment [29] the target is HIV-1 Env of isolate MG RM-D-022 (HIV-1).

Chain of 4993_K13 (PGT-141) (antibody) (VH): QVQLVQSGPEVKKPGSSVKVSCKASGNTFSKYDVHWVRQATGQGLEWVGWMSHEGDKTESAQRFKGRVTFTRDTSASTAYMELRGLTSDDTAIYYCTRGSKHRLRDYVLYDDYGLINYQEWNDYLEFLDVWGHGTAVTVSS
Chain of 4993_K13 (PGT-141) (antibody) (VL): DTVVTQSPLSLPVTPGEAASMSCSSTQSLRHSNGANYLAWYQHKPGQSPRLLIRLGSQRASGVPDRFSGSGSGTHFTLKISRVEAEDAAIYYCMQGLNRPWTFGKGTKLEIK
Chain of 4980_N08 (PGT-143) (antibody) (VH): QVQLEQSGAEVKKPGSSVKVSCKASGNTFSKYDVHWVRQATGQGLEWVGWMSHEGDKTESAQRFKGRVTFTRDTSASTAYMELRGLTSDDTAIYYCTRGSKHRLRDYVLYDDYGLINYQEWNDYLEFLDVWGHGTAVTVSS
Chain of 4980_N08 (PGT-143) (antibody) (VL): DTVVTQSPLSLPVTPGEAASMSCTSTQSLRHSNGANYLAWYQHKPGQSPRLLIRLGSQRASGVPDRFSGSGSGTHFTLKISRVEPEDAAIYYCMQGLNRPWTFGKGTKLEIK
Chain of 4970_K22 (PGT-144) (antibody) (VH): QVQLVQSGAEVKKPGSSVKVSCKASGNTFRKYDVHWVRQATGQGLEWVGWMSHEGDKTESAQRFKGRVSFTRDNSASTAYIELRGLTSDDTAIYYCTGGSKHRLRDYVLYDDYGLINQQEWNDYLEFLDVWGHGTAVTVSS
Chain of 4970_K22 (PGT-144) (antibody) (VL): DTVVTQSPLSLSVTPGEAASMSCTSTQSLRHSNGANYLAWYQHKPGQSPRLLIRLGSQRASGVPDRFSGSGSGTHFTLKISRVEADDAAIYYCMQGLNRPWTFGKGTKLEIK
Chain of 4995_E20 (PGT-142) (antibody) (VH): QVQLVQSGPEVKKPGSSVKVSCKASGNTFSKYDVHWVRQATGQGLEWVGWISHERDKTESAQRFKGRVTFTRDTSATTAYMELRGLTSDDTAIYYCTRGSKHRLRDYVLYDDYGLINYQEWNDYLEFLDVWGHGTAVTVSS

1496_C09 (PG9) (TCN-109) (antibody): the IC50 (µg/ml), pseudovirus neutralization in experiment [1] was found to be 0.59 µg/mL; in experiment [2], 0.04 µg/mL; in experiment [3] it was 0.18 µg/mL; in [6] it was 0.4 µg/mL. The IC50 in experiment [4] came to 0.16 µg/mL; in [5] it was 4.9 µg/mL. In experiment [7], this substance registered an IC50, pseudovirus neutralization of 12.9 µg/mL. In addition, the IC50 neutralization in experiment [8] amounted to 0.0375 µg/mL; in experiment [9], 0.113 µg/mL.
Turning to 4838_L06 (PGT-121) (antibody), the IC50, pseudovirus neutralization in experiment [10] was over 50 µg/mL; in experiment [11], over 50 µg/mL; in [12], over 50 µg/mL; in experiment [16], over 50 µg/mL; in experiment [17], 0.016 µg/mL. Also, the IC50 (µg/mL), pseudovirus neutralization was 0.018 µg/mL in [13]; over 50 µg/mL in experiment [15]; 28.4 µg/mL in experiment [18]; 0.931 µg/mL in experiment [19]; 0.04 µg/mL in experiment [20]; 0.005 µg/mL in experiment [21]. The IC50 in [14] is over 50 µg/mL.
On to 4858_P08 (PGT-123) (antibody), for which the neutralization IC50 is 0.013 µg/mL in experiment [22] and over 10 µg/mL in experiment [23]. Further, the neutralization IC80 in [22] was 0.039 µg/mL; in experiment [23], over 10 µg/mL. Further, the neutralization IC90 in [22] is 0.0741 µg/mL; in [23], over 10 µg/mL. Besides, the neutralization IC95 in [22] is 0.134 µg/mL; in experiment [23], over 10 µg/mL. In addition, in experiment [24], the neutralization IC50 (pseudovirus) amounted to 0.0303 µg/mL. In addition, the IC50, pseudovirus neutralization in experiment [10] is over 50 µg/mL; in [11] it was over 50 µg/mL; in [12] it was over 50 µg/mL; in experiment [25], 0.215 µg/mL; in experiment [16] it was over 50 µg/mL; in [17], 0.016 µg/mL. For the same substance, the IC50 (µg/mL), pseudovirus neutralization in experiment [13] was 0.023 µg/mL; in experiment [15], over 50 µg/mL; in [18] it was over 50 µg/mL; in [19] it was 4.95 µg/mL; in experiment [20] it was 0.054 µg/mL; in experiment [21], 0.004 µg/mL. In experiment [14], this substance came in with an IC50 of over 50 µg/mL. Besides, the IC50 neutralization was determined as 0.492 µg/mL in experiment [8] and 0.0031 µg/mL in experiment [9].
In the case of 4877_D15 (PGT-122) (antibody), in experiment [24], the neutralization IC50 (pseudovirus) is 0.191 µg/mL. Moreover, the IC50, pseudovirus neutralization is over 50 µg/mL in [10]; over 50 µg/mL in experiment [11]; over 50 µg/mL in experiment [12]; 0.867 µg/mL in experiment [25]; over 50 µg/mL in [16]; 0.024 µg/mL in [17]. Further, the IC50 (µg/mL), pseudovirus neutralization in experiment [13] was 0.019 µg/mL; in experiment [15], over 50 µg/mL; in experiment [18], 31.4 µg/mL; in experiment [19], 4.81 µg/mL; in experiment [20], 0.563 µg/mL; in experiment [21], 0.008 µg/mL. The substance further came in with an IC50 in experiment [14] of over 50 µg/mL. For the same substance, the results for the IC50 neutralization in experiment [8] and in experiment [9] were 1.68 µg/mL and 0.0089 µg/mL, respectively.
As for 4970_K22 (PGT-144) (antibody), the IC50 (neutralizing activity, pseudovirus) in [24] is over 10 µg/mL. Also, the IC50 (µg/mL), pseudovirus neutralization in experiment [26] and in [27] was over 50 µg/mL in each case.
In experiment [24], 4980_N08 (PGT-143) (antibody) came in with an IC50 (neutralizing activity, pseudovirus) of over 10 µg/mL. Also, the IC50 (µg/mL), pseudovirus neutralization in experiment [26] and in experiment [27] was over 50 µg/mL each time.
With 4993_K13 (PGT-141) (antibody), the IC50 (neutralizing activity, pseudovirus) in experiment [24] is over 10 µg/mL. Also, the IC50 (µg/mL), pseudovirus neutralization in [26] and in [27] was over 50 µg/mL each time.
As for 4995_E20 (PGT-142) (antibody), the IC50 (neutralizing activity, pseudovirus) in experiment [24] is over 10 µg/mL. The IC50 (µg/mL), pseudovirus neutralization in experiment [26] and in experiment [27] was over 50 µg/mL throughout.
In turn, 5123_A06 (PGT-125) (antibody) gave a neutralization IC50 (pseudovirus) in experiment [24] of 0.0262 µg/mL. The IC50, pseudovirus neutralization in experiment [10] was over 50 µg/mL; in experiment [11], over 50 µg/mL; in experiment [12], over 50 µg/mL; in [25] it was 2.31 µg/mL; in [16], over 50 µg/mL; in experiment [17], over 50 µg/mL. Besides, the IC50 (µg/mL), pseudovirus neutralization in [13] was 0.021 µg/mL; in [15], over 50 µg/mL; in experiment [18], over 50 µg/mL; in [19] it was over 50 µg/mL; in experiment [20] it was over 50 µg/mL; in [21] it was 0.015 µg/mL. This substance also registered an IC50 in experiment [14] of 0.009 µg/mL. For the same substance, the IC50 neutralization in [8] is 0.0055 µg/mL; in experiment [9] it was 0.0106 µg/mL.
In the case of 5141_B17 (PGT-126) (antibody), the IC50, pseudovirus neutralization in experiment [22] was 0.0163 µg/mL; in experiment [23] it was over 10 µg/mL; in experiment [10], over 50 µg/mL; in [11] it was over 50 µg/mL; in experiment [12] it was over 50 µg/mL; in experiment [25], 0.0639 µg/mL. Further, the IC50, pseudovirus neutralization in experiment [16] and in [17] was over 50 µg/mL in each case. Besides, the IC80 (pseudovirus neutralization) in experiment [22] is 0.0457 µg/mL; in experiment [23], over 10 µg/mL. In addition, the IC90 (pseudovirus neutralization) in experiment [22] was 0.0846 µg/mL; in experiment [23], over 10 µg/mL. Further, the figures for the IC95 (pseudovirus neutralization) in [22] and in experiment [23] were 0.152 µg/mL and over 10 µg/mL, respectively. In addition, in experiment [24], the neutralization IC50 (pseudovirus) stood at 0.0256 µg/mL. In addition, the IC50 (µg/mL), pseudovirus neutralization in experiment [13] is 0.007 µg/mL; in experiment [15], 0.052 µg/mL; in experiment [18] it was over 50 µg/mL; in [19] it was over 50 µg/mL; in [20] it was 14.9 µg/mL; in [21] it was 0.007 µg/mL. Further, the IC50 in [14] amounted to 17.3 µg/mL. Further, the IC50 neutralization was found to be 0.0033 µg/mL in experiment [8] and 0.0076 µg/mL in experiment [9].
Turning to 5145_B14 (PGT-127) (antibody), the IC50, pseudovirus neutralization in [10], in experiment [11], in [12], in experiment [16] and in experiment [17] was over 50 µg/mL throughout. The IC50 (µg/mL), pseudovirus neutralization is 0.04 µg/mL in experiment [13]; 1.9 µg/mL in experiment [15]; over 50 µg/mL in [18]; over 50 µg/mL in experiment [19]; 3.59 µg/mL in [20]; 0.022 µg/mL in experiment [21]. This substance also yielded an IC50 in experiment [14] of over 50 µg/mL.
On to VRC01 (antibody), for which the IC50 (µg/mL), pseudovirus neutralization in experiment [26] was 0.515 µg/mL; in experiment [27] it was 0.217 µg/mL. Further, the IC50 in [28] was 0.332 µg/mL; in experiment [29] it was over 50 µg/mL; in experiment [18] it was 0.387 µg/mL; in [19], 0.517 µg/mL; in experiment [20], 0.032 µg/mL.

The term IC50 denotes the concentration at which inhibition is half-maximal.

The values above are taken from patent publication US20250320281A1.
